Assay results published in patent US20230043813A1, “METHODS FOR TARGETED CELL DEPLETION” (The Regents of the University of California, priority 2019, published 2023).

Assays:
[1] = test system: GFP reporter in HEK-RT1 cells; experiment: rapid mammalian genome editing reporter assay (HEK-RT1, GFP disruption); type: cell-based, human
Text: To establish a rapid and quantitative way to reliably assess genome editing efficiency from various CRISPR-Cas constructs in mammalian cells, a fluorescence-based reporter assay was built. […] To quantify this effect, HEK293T cells were stably transduced with a retroviral vector (LMP-Pten.1524) constitutively expressing GFP (Fellmann et al., 2013), and established monoclonal derivatives.
Specifically, inducible monoclonal HEK293T-based genome editing reporter cells, referred to as “HEK-RT1,” were established in a two-step procedure. In the first step, puromycin resistant monoclonal HEK-RT3-4 reporter cells were generated (Park et al., 2018). In brief, HEK293T human embryonic kidney cells were transduced at low-copy with the amphotropic pseudotyped RT3GEPIR-Ren.713 retroviral vector (Fellmann et al., 2013), comprising an all-in-one Tet-On system enabling doxycycline-controlled GFP expression. After puromycin (2.0 μg/ml) selection of transduced HEK239 Ts, 36 clones were isolated and individually assessed for i) growth characteristics, ii) homogeneous morphology, iii) sharp fluorescence peaks of doxycycline (1 μg/ml) inducible GFP expression, iv) relatively low fluorescence intensity to favor clones with single-copy reporter integration, and v) high transfectability.
Since HEK-RT3-4 are puromycin resistant, in the second step, monoclonal HEK-RT1 and analogous sister reporter cell lines were derived by transient transfection of HEK-RT3-4 cells with a pair of vectors encoding Cas9 and guide RNAs targeting puromycin (sgPuro5, sgPuro6), followed by identification of monoclonal derivatives that are puromycin sensitive. In total, eight clones were isolated and individually assessed for i) growth characteristics, ii) homogeneous morphology, iii) doxycycline (1 μg/ml) inducible and reversible GFP fluorescence, and v) puromycin and hygromycin B sensitivity. […] The HEK-RT1 cell line was chosen as rapid mammalian genome editing reporter system for all further assays.
A guide RNA targeting the GFP fluorescence reporter (sgGFP9) was compared to a non-targeting control (sgNT). […] GFP expression in HEK-RT1 reporter cells was induced for 24-48 hour using doxycycline (1 μg/ml; Sigma-Aldrich), at the indicated days post-editing.

[2] = test system: GFP or RFP expression in E. coli MG1655; experiment: E. coli CRISPRi GFP/RFP repression assay; type: cell-based
Protocol: Assays were performed using methods like those described by Oakes et al. (2016).
Endpoint Assay: Cells were picked in biological triplicate into 96 well plates containing 500 μL EZ MOPS plus Carb and CM. Plates were grown in 37° C. shakers for twelve hours. Next, cells were diluted 1:1000 in 500 μL EZ MOPS plus Carb, CM, IPTG and aTc. Two hundred nM aTc was used to induce Cas9-CPs or ProCas9s and 50 μM IPTG levels was used to induce the proteases in a 2 mL deep well blocks and shaken at 750 rpm at 37° C. After an eight-twelve-hour induction and growth period, 20 μL of cells were added to 80 μL of water and put into a 96-well microplate reader (Tecan M1000) at 37° C. and read immediately. Each well was measured for optical density at 600 nm and GFP or RFP fluorescence. GFP expression was normalized by dividing it with OD600. In the case of the time course assays, 150 μL of the 1:1000 dilution was used and placed into a black walled clear bottom plate (3631-Corning) and directly into the Tecan M1000 for a 130× 600 s kinetic cycle of reading. For E. coli single cell analysis, cells from the endpoint time course were run on a Sony SH800 to capture 100,000 events per sample.

[3] = molecular target: T1, WNV protease (Kunjin virus, UniProt P14335); experiment: immunoblot of ProCas9Flavi activation in HEK293T; type: cell-based, human; settings: HEK293T co-transfected with WNV protease
T1 construct: expressed in transfected cells; host or cells: HEK293T (293FT)
T1 sequence (P14335 1506-2124): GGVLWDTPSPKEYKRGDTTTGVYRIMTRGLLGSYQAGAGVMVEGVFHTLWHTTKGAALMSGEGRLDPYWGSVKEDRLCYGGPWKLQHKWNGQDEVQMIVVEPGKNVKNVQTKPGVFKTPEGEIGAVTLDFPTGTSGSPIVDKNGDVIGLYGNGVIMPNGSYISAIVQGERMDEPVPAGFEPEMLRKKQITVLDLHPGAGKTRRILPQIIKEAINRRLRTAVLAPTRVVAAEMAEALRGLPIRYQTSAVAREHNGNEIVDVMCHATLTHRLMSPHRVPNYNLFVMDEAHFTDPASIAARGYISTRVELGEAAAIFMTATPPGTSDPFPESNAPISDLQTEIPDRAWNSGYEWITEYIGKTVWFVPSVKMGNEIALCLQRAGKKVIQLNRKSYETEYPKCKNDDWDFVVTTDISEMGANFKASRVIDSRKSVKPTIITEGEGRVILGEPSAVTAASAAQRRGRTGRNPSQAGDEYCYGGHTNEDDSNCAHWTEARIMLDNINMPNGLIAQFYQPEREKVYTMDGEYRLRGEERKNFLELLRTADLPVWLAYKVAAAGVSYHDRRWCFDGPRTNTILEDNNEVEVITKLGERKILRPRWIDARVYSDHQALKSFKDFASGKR
T1 sequence (P14335 1375-1505): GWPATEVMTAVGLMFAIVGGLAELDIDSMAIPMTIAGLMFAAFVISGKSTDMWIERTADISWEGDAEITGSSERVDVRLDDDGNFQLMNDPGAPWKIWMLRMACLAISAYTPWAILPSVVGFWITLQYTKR
Protocol: HEK293T (293FT; Thermo Fisher Scientific) were co-transfected with the indicated plasmids expressing Cas9-wt or ProCas9-Flavi and plasmids expressing dTEV or WNV protease. HEK293T cells were split to reach a confluency of 70%-90% at time of transfection. For transfections in 6-well plates, 1 μg Cas9-sgRNA vector and 0.75 μg protease vector (if applicable) were mixed in 0.4 mL Opti-MEM, followed by addition of 5.25 μg polyethylenimine (PEI; Polysciences #23966). After 20-30 min incubation at room temperature, the transfection reactions were dispersed over the HEK293T cells. Media was changed 12-hour post-transfection. At 36-hour post-transfection, HEK293T were washed in ice-cold PBS and scraped from the plates. Cell pellets were lysed in Laemmli buffer (62.5 mMTris-HCl pH 6.8, 10% glycerol, 2% SDS, 5% 2-mercaptoethanol). Equal amounts of protein were separated on 4%-20% Mini-PROTEAN TGX gels (Bio-Rad, #456-1095) and transferred to 0.2 μm PVDF membranes (Bio-Rad, #162-0177). Blots were blocked in 5% milk in TBST 0.1% (TBS+[…]) for 1 hour; all antibodies were incubated in 5% milk in TBST 0.1% at 4° C. overnight; blots were washed in TBST 0.1%. The abundance of b-actin (ACTB) was monitored to ensure equal loading. […]

[4] = test system: PCSK9 locus; experiment: editing at the endogenous PCSK9 locus (T7E1 assay, TIDE); type: cell-based, human; settings: guide sgPCSK9-4, WNV protease vs dTEV; A549 and HAP1
Protocol: Unless otherwise noted, error bars indicate the standard deviation of triplicates, and significance was assessed by comparing samples to their respective controls using unpaired, two-tailed t tests (alpha=0.05). Genome editing quantification using TIDE was carried out as recommended (Brinkman et al., 2014). In brief, indels ranging from −10 to +10 nucleotides were quantified. Parental cells were used as reference for normalization. When reporting TIDE editing efficiencies, only indels with p values <0.01 in at least one replicate were considered true.

B1: ProCas9Flavi: ProCas9 with WNV linker sequence KQKKR/GGK, Flavivirus protease-sensitive caged Cas9 (SEQ ID NO:50) (protein)
chain: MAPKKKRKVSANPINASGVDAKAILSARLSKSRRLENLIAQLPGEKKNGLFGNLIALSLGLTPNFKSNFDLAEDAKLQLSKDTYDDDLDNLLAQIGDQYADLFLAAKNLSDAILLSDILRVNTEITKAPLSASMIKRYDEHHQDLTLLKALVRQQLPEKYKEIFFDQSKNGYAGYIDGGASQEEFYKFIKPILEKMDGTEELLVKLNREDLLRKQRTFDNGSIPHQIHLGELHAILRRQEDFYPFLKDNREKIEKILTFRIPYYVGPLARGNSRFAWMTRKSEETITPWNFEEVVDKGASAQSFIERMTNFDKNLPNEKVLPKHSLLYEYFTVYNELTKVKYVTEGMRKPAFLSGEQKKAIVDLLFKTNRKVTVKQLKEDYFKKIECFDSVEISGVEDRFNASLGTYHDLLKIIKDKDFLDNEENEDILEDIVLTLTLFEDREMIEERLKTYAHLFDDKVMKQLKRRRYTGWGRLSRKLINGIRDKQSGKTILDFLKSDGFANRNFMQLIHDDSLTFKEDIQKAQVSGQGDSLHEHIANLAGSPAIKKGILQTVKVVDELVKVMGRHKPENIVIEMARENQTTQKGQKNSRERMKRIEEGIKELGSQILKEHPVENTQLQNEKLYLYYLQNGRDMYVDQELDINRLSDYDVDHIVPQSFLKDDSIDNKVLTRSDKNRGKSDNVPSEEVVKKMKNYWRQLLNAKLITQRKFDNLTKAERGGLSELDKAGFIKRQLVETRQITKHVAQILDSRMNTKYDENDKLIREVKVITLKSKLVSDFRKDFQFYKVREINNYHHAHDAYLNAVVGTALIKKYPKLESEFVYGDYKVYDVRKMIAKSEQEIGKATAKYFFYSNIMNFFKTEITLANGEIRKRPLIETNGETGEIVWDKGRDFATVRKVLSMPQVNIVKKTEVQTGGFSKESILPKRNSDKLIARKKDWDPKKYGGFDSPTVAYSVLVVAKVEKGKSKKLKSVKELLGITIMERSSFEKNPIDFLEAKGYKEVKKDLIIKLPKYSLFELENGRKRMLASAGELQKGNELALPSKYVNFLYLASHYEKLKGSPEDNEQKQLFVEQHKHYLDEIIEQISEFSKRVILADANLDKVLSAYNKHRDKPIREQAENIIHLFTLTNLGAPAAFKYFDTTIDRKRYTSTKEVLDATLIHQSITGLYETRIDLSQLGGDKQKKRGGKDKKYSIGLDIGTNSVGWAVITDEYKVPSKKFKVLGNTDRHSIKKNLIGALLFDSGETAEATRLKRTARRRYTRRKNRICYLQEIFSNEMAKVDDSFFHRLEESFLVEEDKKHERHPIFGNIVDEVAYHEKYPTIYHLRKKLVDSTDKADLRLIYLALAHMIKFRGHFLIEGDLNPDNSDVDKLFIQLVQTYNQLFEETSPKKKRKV
Q: What does the source list for B1?
A: GFP disruption ([1]; transient transfection, with active or deactivated proteases): GFP disruption only in the presence of the active proteases; ProCas9 activation by co-expressed viral proteases ([2]; Cas9-CP199 with protease cleavage site as CP linker): activated by NS2B-NS3 proteases from both Zika and WNV; activation (cleavage into two subunits) by immunoblot [3]: vast majority of vigilant ProCas9Flavi was activated and observed as two distinct subunits

B2: EF1a-ProCas9Flavi: ProCas9Flavi expressed from the strong full-length EF1a promoter, stably integrated lentiviral vector (protein)
chain: B1 chain
Q: For B2, which genome editing ([1]; stable expression of WNV protease, out to 8 days) is on record?
A: about 35%

Q: What about the “genome editing efficiency after transient protease transfection” value ([1]; stably integrated ProCas9, ZIKV, WNV proteases, mTagBFP2-positive cells) of the same molecule?
A: highest genome editing efficiency

Q: And the genome editing ([1]; stably transduced WNV protease (FIG. 4F))?
A: over 25%

Q: What about the “protease-sensitive editing at the PCSK9 locus (T7E1)” value [4] of the same molecule?
A: clear genome editing in the presence of WNV protease

B3: CP199: Cas9 circular permutant, new start site aa 199 (SEQ ID NO:44); linker varies by experiment (protein)
chain: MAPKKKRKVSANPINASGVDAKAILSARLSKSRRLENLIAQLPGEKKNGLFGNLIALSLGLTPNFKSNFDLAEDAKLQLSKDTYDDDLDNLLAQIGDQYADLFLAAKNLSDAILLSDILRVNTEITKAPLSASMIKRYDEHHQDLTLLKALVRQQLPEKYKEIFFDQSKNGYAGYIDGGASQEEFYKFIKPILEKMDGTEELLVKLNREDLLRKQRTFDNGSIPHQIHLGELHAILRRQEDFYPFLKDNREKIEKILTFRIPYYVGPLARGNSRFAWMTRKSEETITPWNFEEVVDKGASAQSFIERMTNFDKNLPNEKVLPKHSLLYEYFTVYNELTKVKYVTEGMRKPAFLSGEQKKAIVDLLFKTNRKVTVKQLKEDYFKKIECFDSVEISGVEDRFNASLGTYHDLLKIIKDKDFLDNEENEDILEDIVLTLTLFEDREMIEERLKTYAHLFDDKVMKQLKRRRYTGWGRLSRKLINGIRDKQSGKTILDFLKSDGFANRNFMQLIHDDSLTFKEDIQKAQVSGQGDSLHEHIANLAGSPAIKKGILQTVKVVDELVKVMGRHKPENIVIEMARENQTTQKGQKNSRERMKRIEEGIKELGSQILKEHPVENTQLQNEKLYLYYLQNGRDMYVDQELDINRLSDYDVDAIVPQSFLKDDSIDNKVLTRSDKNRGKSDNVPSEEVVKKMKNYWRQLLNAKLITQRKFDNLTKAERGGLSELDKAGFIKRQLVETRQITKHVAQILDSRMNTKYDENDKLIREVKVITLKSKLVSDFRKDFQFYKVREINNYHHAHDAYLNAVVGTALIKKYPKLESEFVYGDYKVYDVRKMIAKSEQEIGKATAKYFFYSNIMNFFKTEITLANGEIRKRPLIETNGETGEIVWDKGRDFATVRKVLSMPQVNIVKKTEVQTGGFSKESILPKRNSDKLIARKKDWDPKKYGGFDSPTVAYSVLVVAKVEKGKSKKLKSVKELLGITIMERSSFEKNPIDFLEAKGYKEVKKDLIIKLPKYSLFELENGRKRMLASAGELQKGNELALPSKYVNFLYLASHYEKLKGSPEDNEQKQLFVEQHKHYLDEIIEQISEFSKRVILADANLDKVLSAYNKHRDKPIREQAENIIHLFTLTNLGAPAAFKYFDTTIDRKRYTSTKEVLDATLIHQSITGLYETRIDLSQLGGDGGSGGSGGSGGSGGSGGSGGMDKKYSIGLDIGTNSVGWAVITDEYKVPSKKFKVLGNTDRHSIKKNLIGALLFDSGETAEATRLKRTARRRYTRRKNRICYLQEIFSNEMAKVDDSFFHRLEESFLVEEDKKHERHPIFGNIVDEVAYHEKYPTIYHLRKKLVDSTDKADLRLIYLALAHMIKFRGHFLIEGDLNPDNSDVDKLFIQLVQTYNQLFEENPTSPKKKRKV
Q: For B3, which “GFP repression activity with TEV protease” value ([2]; 7-amino acid TEV cleavage site (ENLYFQ/S) as linker, active TEV vs dTEV) is on record?
A: switched from completely off to fully on
